Substitutions are numbered along the chain they refer to. Each block holds one binder with its values, some of them ahead of it. Non-standard residues stand in square brackets, D forms with d. No end group written: not given here. pT = C[C@@H](OP(=O)(O)O)[C@H](N)C(=O)O
Experiments:
[1] = target: T1, Tau191-214 phospho-peptide (pS199) (human, pS199 (phosphoserine); SCBio-4PEG in the ELISA); experiment: BLI
T1 construct: also called pS199 peptide

[2] = target: T2, SCBio-4PEG-Peptide (Tau191-214) pS199-old (human, pS199; SCBio-4PEG at the peptide as in the table head); experiment: one point ELISA
T2 construct: the suffix old is not explained
Description: (§1) One-point ELISA was used to determine differential binding based on the individual phosphorylation patterns of each peptide. OD values (450 nm) were collected (as shown in Table 13), where a stronger positive signal is shown as a higher OD value, which is indicative of increased binding.

[3] = target: T1, Tau191-214 phospho-peptide (pS199); experiment: one point ELISA
Description: as §1

[4] = target: Tau191-214 phospho-peptide (pS202) (human, pS202 (phosphoserine); SCBio-4PEG in the ELISA); experiment: one point ELISA
Description: as §1

[5] = target: Tau191-214 phospho-peptide (pT205) (human, pT205 (phosphothreonine); SCBio-4PEG in the ELISA); experiment: one point ELISA
Description: as §1

[6] = target: Tau191-214 phospho-peptide (pS199/pS202) (human, pS199, pS202; SCBio-4PEG in the ELISA); experiment: one point ELISA
Description: as §1

[7] = target: Tau191-214 phospho-peptide (pS199/pT205) (human, pS199, pT205; SCBio-4PEG in the ELISA); experiment: one point ELISA
Description: as §1

[8] = target: T3, Enriched paired helical filament (ePHF; sarkosyl insoluble tau) (human, UniProt P10636 2-758, pathological (hyperphosphorylated) tau isolated from brain; sites not stated); experiment: direct ELISA, coated antigen
T3 construct: aggregate isolated from AD frontal cortical tissue
Experimental: A set of recombinant human IgG1 antibodies were prepared with clone-specific variable domain pairs selected from those presented in Table 1 and human IgG1 constant domains. These candidate antibodies were analyzed for binding to ePHF and specificity for ePHF over wild type tau by direct ELISA.
For direct ePHF and wildtype tau ELISA, plates were first coated with ePHF or wild type tau. Antigen solutions were prepared in PBS and 50 μL were pipetted into each well. Plates were covered and incubated for one hour at 37° C. or overnight at 4° C. Plates were then washed and blocked by addition of 150 μl of blocking buffer to each well and incubated one hour at room temperature. Plates were then washed before addition of serially diluted candidate antibody samples prepared in blocking buffer. Detection of candidate antibody binding was carried out by washing plates and adding a solution of enzyme-labeled secondary antibody in blocking buffer to each well. Secondary antibody binding was detected by addition of substrate and spectrophotometric analysis of resulting reaction product.

iPHF = iPHF (UniProt P10636-8 2-441); experiment: BLI (Octet), antibody on biosensor tip
Experimental: Anti-human tau antibodies were assessed for affinity for iPHF by Octet (ForteBio, Menlo Park, CA) analysis. A set of recombinant human IgG1 antibodies were prepared with clone-specific variable domain pairs selected from those presented in Table 1 and human IgG1 constant domains. Candidate antibodies were immobilized on biosensor tips (ForteBio) in kinetic buffer (ForteBio). Biosensor tips were then washed before introduction of a solution of iPHF in kinetic buffer for analysis of association and dissociation with candidate antibodies.

[9] = target: T4, AT8 peptide (amino acids 195-215 of tau) (human, phospho-peptide; the phosphorylated sites are not stated; immobilized on streptavidin biosensor tips); experiment: BLI (Octet), peptide on streptavidin tip
T4 peptide: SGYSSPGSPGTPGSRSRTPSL
Experimental: Briefly, phospho-peptides were immobilized on streptavidin biosensor tips and the binding ability of each antibody was assessed using an eight-point concentration gradient.

[10] = target: T5, AT270 peptide (pT181; Tau172-186) (human); experiment: one point ELISA
T5 peptide: PAKTPPAPK[pT]PPSSG

T3 sequence (P10636 other isoform, or with tags, fused parts or gaps limits assumed): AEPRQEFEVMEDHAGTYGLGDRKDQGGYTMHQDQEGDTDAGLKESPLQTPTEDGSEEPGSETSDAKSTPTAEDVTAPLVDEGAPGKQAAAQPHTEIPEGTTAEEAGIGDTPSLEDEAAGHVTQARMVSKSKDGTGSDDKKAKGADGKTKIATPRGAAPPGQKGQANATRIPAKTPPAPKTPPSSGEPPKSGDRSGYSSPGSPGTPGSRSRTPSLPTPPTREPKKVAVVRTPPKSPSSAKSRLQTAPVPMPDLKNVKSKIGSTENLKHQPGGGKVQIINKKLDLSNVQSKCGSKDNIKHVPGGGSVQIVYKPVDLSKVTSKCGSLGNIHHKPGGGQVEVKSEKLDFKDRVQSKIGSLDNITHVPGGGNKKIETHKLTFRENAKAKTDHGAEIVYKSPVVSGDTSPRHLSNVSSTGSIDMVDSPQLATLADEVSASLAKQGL
Sequence of iPHF (P10636 other isoform, or with tags, fused parts or gaps): as the sequence (P10636 other isoform, or with tags, fused parts or gaps limits assumed) above
T2 sequence (peptide, as listed by the source): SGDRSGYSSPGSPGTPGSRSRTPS

binding result [1]: no binding
OD450 [2]: 0.062 OD450 nm
OD450 [3]: 0.065 OD450 nm
OD450 [4]: 0.065 OD450 nm
OD450 [5]: 0.06 OD450 nm
OD450 [6]: 0.082 OD450 nm
OD450 [7]: 0.119 OD450 nm
EC50 [8]: 0.06 nM
Kd (iPHF): 4.6 nM
Kd [9]: 0.0124 nM
B1: VY003 (antibody, V domains shown)
VH: EVQMVESGGGLVQPGGSLTLSCAASGFTFSSYRMNWVRQAPGKGLEWVSYISSSRSAIYYADSVKGRFTISRDNAKNSLYLQMNSLRDEDTAVYYCATLGIGYWGQGTLVTVSS
VL: DIVMTQTPLSSPVTLGQPASISCRSSQSLVHSDGNTYLSWLQQRPGQPPRLLIYKISNRFSGVPDRFSGSGAGTDFTLKITRVEAEDVGIYYCMQVTQFPRTFGQGTKVEIR

binding result [10]: no binding
OD450 [4]: 0.06 OD450 nm
OD450 [5]: 0.06 OD450 nm
EC50 [8]: 0.03 nM
Kd (iPHF): 2 nM
Kd [9]: 0.0089 nM
B2: VY011 (antibody, V domains shown)
VH: QVQLQESGPGLVKPSETLSLTCTVSGGSISNYYWTWIRQPAGKGLEWIGRVYTSGSANYNPSLKSRVTMSVDTSKNQFSLTLSSVTAADTAVYYCARDRGLYYWGQGTLVTVSS
VL: B1 VL with P12L, N58K, S61F, T81N, V96A, R101L, Q105G, R112K

Source: US20240059766A1 (VOYAGER THERAPEUTICS, published 2024)
